Consider one substance from publication PMC2114734.

The assay concerns the target High affinity thrombin receptor of NIL hamster fibroblasts (Syrian hamster (endogenous in NIL cells)). The experiment in a line: radioligand binding.

As for “Human alpha-thrombin (from UniProt P00734 364-622; P00734 364-622) (enzyme)”, the specific 125I-thrombin binding (cpm/ug protein) amounted to 439.
